Measured values: publication PMC6201953

Legend:
[1] = target: HIV-1 HXB2 envelope glycoprotein (Env) (HIV-1 (isolate HXB2)) (UniProt P04578)
[2] = target: HIV-1 BG505 envelope glycoprotein (Env) (HIV-1 (isolate BG505)) (UniProt Q2N0S6)
[3] = target: HIV-1 HXB2 envelope glycoprotein (Env) (HIV-1 (isolate HXB2)) (UniProt P04578); remark: listed apart in the source
[4] = target: HIV-1 YU2 envelope glycoprotein (Env) (HIV-1 (isolate YU2)) (UniProt P35961)
[5] = target: HIV-1 ZM651 envelope glycoprotein (Env) (HIV-1 (isolate ZM651))
[6] = target: HIV-1 HXB2 envelope glycoprotein (Env) (HIV-1 (isolate HXB2)) (UniProt P04578); remark: listed apart in the source
[7] = target: HIV-1 YU2 envelope glycoprotein (Env) (HIV-1 (isolate YU2)) (UniProt P35961); remark: listed apart in the source

Chain of UniProt P35961 (P35961 32-843): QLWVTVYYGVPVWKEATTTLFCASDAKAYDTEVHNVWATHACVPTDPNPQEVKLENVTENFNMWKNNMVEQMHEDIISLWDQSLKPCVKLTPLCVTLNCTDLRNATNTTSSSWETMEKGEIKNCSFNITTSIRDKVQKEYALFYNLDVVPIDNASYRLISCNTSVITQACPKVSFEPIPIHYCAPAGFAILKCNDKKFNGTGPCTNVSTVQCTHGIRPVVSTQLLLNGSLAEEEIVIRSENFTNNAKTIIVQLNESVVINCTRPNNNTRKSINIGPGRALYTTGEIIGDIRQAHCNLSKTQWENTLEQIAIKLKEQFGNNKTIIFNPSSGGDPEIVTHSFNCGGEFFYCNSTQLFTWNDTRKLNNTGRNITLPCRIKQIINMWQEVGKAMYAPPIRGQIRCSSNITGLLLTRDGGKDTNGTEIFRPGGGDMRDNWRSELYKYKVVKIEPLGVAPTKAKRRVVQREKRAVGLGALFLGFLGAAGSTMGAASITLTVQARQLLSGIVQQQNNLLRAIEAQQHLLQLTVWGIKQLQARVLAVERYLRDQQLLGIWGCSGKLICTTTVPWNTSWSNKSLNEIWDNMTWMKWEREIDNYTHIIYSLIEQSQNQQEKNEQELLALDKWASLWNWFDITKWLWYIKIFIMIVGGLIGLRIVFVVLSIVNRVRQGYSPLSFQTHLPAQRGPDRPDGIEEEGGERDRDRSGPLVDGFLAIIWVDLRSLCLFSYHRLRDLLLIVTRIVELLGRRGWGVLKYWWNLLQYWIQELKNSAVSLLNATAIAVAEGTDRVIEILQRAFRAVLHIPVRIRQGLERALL

| Env-mediated cell-cell fusion (SRFA), fusion level with 10 μg/mL antibody; the pair said to be blocked is CD4 (on HeLa.CD4-DSP2 cells) with gp120 [1] | Substance | IC50 of neutralisation of HIV-1 pseudovirus (TZM-bl assay) [2] [µg/mL] | IC90 of neutralisation of HIV-1 pseudovirus (TZM-bl assay) [2] [µg/mL] | IC50 of neutralisation of HIV-1 pseudovirus (TZM-bl assay) [3] [µg/mL] | IC90 of neutralisation of HIV-1 pseudovirus (TZM-bl assay) [3] [µg/mL] | IC50 of neutralisation of HIV-1 pseudovirus (TZM-bl assay) [4] [µg/mL] | IC90 of neutralisation of HIV-1 pseudovirus (TZM-bl assay) [4] [µg/mL] | IC50 of neutralisation of HIV-1 pseudovirus (TZM-bl assay) [5] [µg/mL] | IC90 of neutralisation of HIV-1 pseudovirus (TZM-bl assay) [5] [µg/mL] | Env-mediated cell-cell fusion (SRFA), CHO-DSP1 cells with HIV-1 HXB2 Env and HeLa.CD4-DSP2 cells, fusion level at 1 μg/mL (Fig 1D; concentration dependent over 10-1000 ng/mL, Fig 3A) (% of untreated control) [6] | Env-mediated cell-cell fusion (SRFA), fusion level at 260 nM (% of untreated control) [6] | Env-mediated cell-cell fusion (SRFA), CHO-DSP1 cells with HIV-1 YU2 Env and HeLa.CD4-DSP2 cells with CCR5, fusion level at 260 nM (% of untreated control) [7] |
| --- | --- | --- | --- | --- | --- | --- | --- | --- | --- | --- | --- | --- |
| 53 % of control | VRC03 (antibody) | – | – | – | – | – | – | – | – | – | – | – |
| – | eCD4-Ig^mim2 (Fc fusion) | 0.258 | 0.83 | 0.0008 | 0.002 | 0.003 | 0.009 | 0.468 | 1.65 | 18 | 2 | 30 |
